{
  "source": "patent US6518404B1",
  "about": "“Human endothelin-bombesin receptor antibodies” (priority 1994, dated 2003)",
  "key": {"[1]": {"target": "T1, ETBR (endothelin-bombesin receptor) expressed in Xenopus oocytes (Homo sapiens, UniProt O15354)", "T1 construct": "expressed in transfected cells; host or cells: Xenopus oocytes microinjected with in vitro transcribed RNA", "T1 sequence (O15354 27-613)": "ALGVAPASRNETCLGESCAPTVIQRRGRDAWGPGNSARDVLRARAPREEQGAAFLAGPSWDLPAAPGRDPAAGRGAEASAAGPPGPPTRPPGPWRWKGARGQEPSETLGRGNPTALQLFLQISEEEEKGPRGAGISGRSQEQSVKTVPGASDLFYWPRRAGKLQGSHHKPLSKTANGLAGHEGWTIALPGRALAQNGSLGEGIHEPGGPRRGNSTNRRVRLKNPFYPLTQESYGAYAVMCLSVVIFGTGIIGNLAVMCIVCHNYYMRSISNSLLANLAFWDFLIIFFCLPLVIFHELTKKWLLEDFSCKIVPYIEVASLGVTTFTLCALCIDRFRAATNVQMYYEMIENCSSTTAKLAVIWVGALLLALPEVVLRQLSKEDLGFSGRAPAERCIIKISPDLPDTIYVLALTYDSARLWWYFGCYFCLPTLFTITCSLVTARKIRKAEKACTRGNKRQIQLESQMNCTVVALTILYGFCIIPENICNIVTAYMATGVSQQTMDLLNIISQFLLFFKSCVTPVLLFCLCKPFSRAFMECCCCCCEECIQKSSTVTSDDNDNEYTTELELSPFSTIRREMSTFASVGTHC", "assay": "Xenopus oocyte assay to identify ligand (voltage-clamp, calcium activated chloride channel activity)", "assay_type": "cell-based", "conditions": "for Cl- current response upon addition of ligand: 10 nM ligand, oocytes injected with RNA from ATCC #75823, clamped at -60 mV; for mean peak ± S.E. peak current response (chloride current): oocytes injected with pHHPEC49 derived RNA transcripts, n=75", "method": "Arrow indicates ET1 addition. […] The mean peak ± S.E. peak current response to ET1 is 150±50 (n=75), ET2 156±55 (n=75) and Bombesin 148±47 (n=75).\n(§1) RNA was synthesized in vitro from linearized DNA, ATCC #75823, using an RNA transcription kit. This RNA was microinjected into Xenopus oocytes (10 ng of RNA/occytes). The oocytes were manually defolliculated prior to microinjection to remove any endogenous receptors that might be present in the follicular membranes. The injected oocytes were maintained in modified Barth's medium at 18° C. for 48 hours to allow for receptor protein expression. Electrophysiology was performed using the voltage-clamp technique. Oocytes were clamped at −60 mV and the calcium activated chloride channel activity was recorded in Barth's medium at room temperature. Data were analyzed using Axotape software.\n(§2) The ET1 and ET3 mediated response was blocked by the ET receptor peptide antagonist BQ123. […] Since it responds to both ET and Bombesin it represents a novel endothelin-bombesin receptor."}, "uninjected oocytes": {"test_system": "uninjected oocytes", "assay": "Uninjected Xenopus oocytes (control for endogenous response)", "assay_type": "cell-based", "conditions": "uninjected oocytes (data not shown)", "method": "as §1, §2"}},
  "note": "Square brackets hold non-standard residues; d marks the D form. Peptide text beside a SMILES is read from it.",
  "data": [
    {"molecule": "CC(C)C[C@@H]1NC(=O)[C@@H](C(C)C)NC(=O)[C@@H]2CCCN2C(=O)[C@@H](CC(=O)O)NC(=O)[C@@H](Cc2c[nH]c3ccccc23)NC1=O", "note": "[BQ123] (cyclo(L[dW][dD]P[dV]))", "values": [
      {"measurement": "effect on ET1 and ET3 mediated response", "setting": "[1]; oocytes injected with RNA from ATCC #75823", "value": "blocked"}
    ]},
    {"molecule": "AII: related peptide ligand (DRVYIHPF)", "values": [
      {"measurement": "Cl- current response upon addition of ligand", "setting": "[1]", "value": "did not illicit any response"}
    ]},
    {"molecule": "Neuropeptide Y", "values": [
      {"measurement": "Cl- current response upon addition of ligand", "setting": "[1]", "value": "did not illicit any response"}
    ]},
    {"molecule": "endothelin-1 [ET1]", "values": [
      {"measurement": "Cl- current response upon addition of ligand", "setting": "[1]", "value": "fairly strong Cl^− currents"},
      {"measurement": "mean peak ± S.E. peak current response (chloride current)", "setting": "[1]", "value": "150±50", "unit": "nanoamps"},
      {"measurement": "change in membrane potential upon addition of ligand", "setting": "uninjected oocytes", "value": "did not elicit any change in membrane potential"}
    ]},
    {"molecule": "endothelin-2 (CSCSSWLDKECVYFCHLDIIW) [ET2, member of the endothelin peptide family]", "values": [
      {"measurement": "mean peak ± S.E. peak current response (chloride current)", "setting": "[1]", "value": "156±55", "unit": "nanoamps"}
    ]},
    {"molecule": "endothelin-3 [ET3]", "values": [
      {"measurement": "Cl- current response upon addition of ligand", "setting": "[1]", "value": "fairly strong Cl^− currents"},
      {"measurement": "change in membrane potential upon addition of ligand", "setting": "uninjected oocytes", "value": "did not elicit any change in membrane potential"}
    ]}
  ]
}
